Source: the nanobody polyreactivity screen of Harvey et al. (2022)

assay: yeast display, Sf9 membrane polyspecificity reagent, FACS + sequencing; frameworks hold sequencing errors
In short: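 After 36–48 hours of galactose induction, yeast (Saccharomyces cerevisiae BJ5465) displaying a synthetic nanobody library were stained at 4 °C for 1 hour with 10% biotinylated, detergent-solubilized Sf9 membrane reagent. Streptavidin microbeads enriched the stained cells before FACS sorting into low and high (top ~1%) gates on anti-HA and streptavidin fluorescence. Each clone's polyreactivity label reflects its gate of origin.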

| Sequence | polyreactivity (PSR sort gate) |
| --- | --- |
| QVQLVESGGGLVQAGGSLRLRCAASGMGWYRQAPGKEWEKVATITWSDGITYADSVKGRFTISRDNAKNTVYLQMNSLKPEDTAVYYCNADWDQTGTVFYSFGLREMDSWGQCTQVTVSS | low polyreactivity |
| QVQLVESGGGLVQAGGSLRLRCAASGRIFPWYAMGWYRHAPGGEREFVAVISRSGGSTYYADSVKGRFTISRDNAKNTVYLQMNSLKPEDTAVYYCASDGKFEYDYWGQGTQVTVSS | low polyreactivity |
| QVQLVESGGGLVQAGGSLRLRCAASGRIFRGYAMGWYRQAPGKERELVAAISWSGGSSTYADSVKGRFTISLDNAKNTVYLQMNSLKPEDTAVYDCNRVSRGRGRLTVDYQAEGYDSWGQGTQVTVSS | high polyreactivity |
| QVQLVESGGGLVQAGGSLRLRCAASGRIFYFNAMGWYRQAPGKEREFVASINSIGDSTYYADSVKGRFTISRDTAKNTVYLQMNSLKPEDTAVYYCNADHGVINYRLDYWGQGTQVTVSS | low polyreactivity |
| QVQLVESGGGLVQAGGSLRLRCAASGRILVRYAMGWYRQAPGKERELVAAISRGGSTTYADSVKGRFTISRDNAKNTVYLQMNSLKPEDTAVYYCAAGRYPYNRDYWGQGTQVTVSS | high polyreactivity |
| QVQLVESGGGLVQAGGSLRLRCAASGRNIHWYAMGWSRQAPGKEMELVAAITGSGGRTSYADSVKGRFTISRDFAKNTVYLQMNSLKPQDTAVYYCAKRATWYTVPREGYWGQGTQVTVSS | high polyreactivity |
| QVQLVESGGGLVQAGGSLRLRCAASGRTFGPYTMGWYRQAPGKEREFVAAINSSGSRTYYADSVKGRFTISRDNAKNTVYLQMNSLKPEDTAVYYCAAEAKWYYSWSYPYEGDYWGQGTQVTVSS | low polyreactivity |
| QVQLVESGGGLVQAGGSLRLRCAASGRTFIVYAMGWYRQAPGKERELVARISSGSRTSYADSVKGRFTISRDNAKNTVYLQMNSLKPEDTAVYYCAKSRVIKYEFDYWGQGTEVTVSS | low polyreactivity |
| QVQLVESGGGLVQAGGSLRLRCAASGRTIGPYAMGWYRQEPRKERELVAAISWSGGSTYYADSVKGRFTISRDNAKNTVYLQMNSLKPVDTAVYFCAAVYYSHVYYWGQGTQVTVSS | high polyreactivity |
| QVQLVESGGGLVQAGGSLRLRCAASGRTVVGTTMGWYRQAPGKEREVVAAISSGGRTYYADSVKGRFTISRDNAKNTVYLQMNSLIPVDTAVYYCAARRRGKVVPTSQFDYWGQGTQVTVSS | high polyreactivity |
| QVQLVESGGGLVQAGGSLRLRCAASGSIFFYYVMGLSRQAPGKERELVAVISSGGGSTYYADSVKGRFTISRDNAKYTVYLQMNSLKPEDTAVYYCAAGTYYKFYYWGQGTQVTESS | high polyreactivity |
| QVQLVESGGGLVQAGGSLRLRCAASGSIFGAYAMAWYRQAPGKERELVAAINSDISTNYADSVKGRFTISRDNAKNTVYFQMTSVKPEDTAVYYCGVDWPRIYLRYNYWGQGTAVTVSS | low polyreactivity |
| QVQLVESGGGLVQAGGSLRLRCAASGSIFNFYAMGGYRQAPGKERELVATINWSGGRTYYADSVKGRFTISRDNATNTVYLQMNSLNTEDTAVYYCAASRYFRGDYWGQGTQGTVSS | high polyreactivity |
| QVQLVESGGGLVQAGGSLRLRCAASGSIFNSYAMGWYRQAPGKERELVAAISIRGTRTYYADSVKGRFTISRDNAKNTVYLQMNSLKPEDTAVYYCAADASYTEGMDYWGQGTQVTVSS | high polyreactivity |
| QVQLVESGGGLVQAGGSLRLRCAASGSIFYGYAMGWYRQAPGKESEFVAAITTTGGSTYYADSVKGRFTISRDNSKYTVYLQMNSLKPEDTAVYYCATSGDRLVWGQVTQVTVSS | low polyreactivity |
| QVQLVESGGGLVQAGGSLRLRCAASGSTFAWYAMGWYRQAPGKESELVAAITQNGGRTYYADSVKGRFTISRDNAKNTVYLQMNSLKPEDTAVYYCANAFIQPGYKYDSWGQVTQVTVSS | high polyreactivity |
| QVQLVESGGGLVQAGGSLRLRCAASGSTFAYYAMGWYRQAPGKERELVAAISSGGSTYYADSVKGRFTISRDNAKNTVYIQMNSLKAEETAVYYCNKLRVVKFKRYEFGEWGQGTQVTVSS | low polyreactivity |
| QVQLVESGGGLVQAGGSLRLRCAASGSTFVPYAMGWYRQAPWKERELVAAITWNGGRTYYADSVKGRYTISRDNANNTVYLQMNSLKPEDTAVYFCNGLSYTWACYYWGQGTRVTVSS | high polyreactivity |
| QVQLVESGGGLVQAGGSLRLRCAASGSTFYRYALGWYRQAPGKERELVAVITSGGGTYSADSVKGRFSISRDNAKNTVYLQLNSRKPEDTAVYDCAARYLRTRNYQYDYWGQGTQVTVSS | high polyreactivity |
| QVQLVESGGGLVQAGGSLRLRCAASGSTFYYYAMGWYRQAPGKERELVAANTLRGTSTYYADSVKGRFTISRDNAKNTVYLQMNRLKPEDTAVYYCAVETYYSIFDIYDYWGQGTQVTVSS | low polyreactivity |
| QVQLVESGGGLVQAGGSLRLRCAASGSTLYIYAMGWYRQAPGKERELVAAITSSTGSTYADSVKGRFTISRDNAKNTVYLQMNSLKPEDTAVYYCNAGGPLQPYDYWGQGTQVTVSS | low polyreactivity |
| QVQLVESGGGLVQAGGSLRLRCAASGYIFGAYALGWYRQAPGKERELVAAIHVGDASAYYADSVKGRFTISRDNAKKTVYLQMNSLKPEDTAVYYCAKDRGSWEWYTVDYWGQGTQVTVSS | low polyreactivity |
| QVQLVESGGGLVQAGGSLRLRCAASGYTLGPYAMGWYRQAPGKERELVAAISWGGGRTYYADSVKGRFTISRDNAKNTVYLQMNSLKPEDTAVYYCAAKWSHVRDGPKYDYWGQGTQVTVSS | low polyreactivity |
| QVQLVESGGGLVQAGGSLRLRCAAYGSNFVLNAMGLDRKAPGKERELVAAISRGGASTYYADSVKGRFTIARDNSKNTVYLQMTSLKPEDTAVYYCNASGYGQGVVIYLVLYDYWGQGTQVTVSS | low polyreactivity |
| QVQLVESGGGLVQAGGSLRLRSASSGYILFAYAMVWYRQAPGKERELVATISNYGGITYYAESVKGRFTISRDNAKNTVYLQMNRLKPEDNAVYYCAAAEAGGLVTYDYWGQGTQVTVSS | low polyreactivity |
| QVQLVESGGGLVQAGGSLRLSCAAAGLTFQPYVLGWYRQAPGKERELVAAISVRTTRTYYADSVKGRFTISRDNAKNTVYLQMNSLKPEDTAVYYCNVSGVLYPFVSYDYWGQGTHVTVSS | low polyreactivity |
| QVQLVESGGGLVQAGGSLRLSCAAAGRISYANAMGWYRQAPGKERELVASITYSAGSTYADSVKGRFTISRDNAKNTVYLQMNSLKPEDTAVYYCAKRPSQHYRSYLMDYWGQGTQVTVSS | low polyreactivity |
| QVQLVESGGGLVQAGGSLRLSCAAAGSNFLGYAMGWYRQAPGKERELVANITSSGSTSYADSVKGRFTISRDNAKNTVYLQMNSLKPEVTAVYYCAARFRRTYDYWGQGTQVTVSS | high polyreactivity |
| QVQLVESGGGLVQAGGSLRLSCAAAGSTFSYYTMGWYRQAPGKERELVAAITRSGGRTYYADSVKGRFTISRDNAKYTVYLQMNSLKPEDTAVYYCAREYYPDWGQGTQVTVSS | high polyreactivity |
| QVQLVESGGGLVQAGGSLRLSCAACGFTFRYNAMGWYRQAPGKERELVAAITRGGGNTYYADSVKGRFTISRDHAKNTVYLQMNSLKPEDTAVYYCAAYSNGGRYDYGYWGQGTQVTVSS | high polyreactivity |
